Measured values published in patent US20080193457A1, “Ra Antigenic Peptides” (priority 2003, published 2008).

Target: HLA-DRB1*0401 (Homo sapiens, UniProt P01903+P01911, A100K/A169T/F76Y/I96L/K127E/L162R/M171V/N62H/P40V/Q125Y/R42H/S133A/S149N/S66Y/V115G/V209L/W38E)
Assay: not given
Settings: reference peptides, literature (Table 1 footnote h); cited from earlier work

| Molecule | HLA-DRB1*0401 binder |
| --- | --- |
| M. tuberculosis Hsp65 (3-13) (KTIAYDEEARR; UniProt P9WPE7 3-13, looked up, fragment) | weak HLA-DRB1*0401 binder |

Target: T1, HLA-DR4 molecules (HLA-DRB1*0401), purified, detergent-solubilized (human)
T1 construct: mature; The text says HLA-DR4
Assay: in vitro competition binding assay: purified HLA-DR4, biotinylated HA(307-319) reporter, synthetic competitor peptide
Settings: not given

| Molecule | binding result |
| --- | --- |
| GSREIKSQQSEVTR (Synthetic peptide in the in vitro assay) [SH3BGRL3 (13-26)] | binds |
| GDRGMQLMHANAQR (Found as eluted natural peptide and tested as synthetic peptide; also called Interferon-gamma-inducible lysosomal thiol reductase (192-205)) [GILT (192-205)] | binds |
| GPNNYYSFASQQQKPE (Found as eluted natural peptide and tested as synthetic peptide) [PSMD8 (218-233)] | binds |
| NVVFVIDKSGSMSG (Synthetic peptide in the in vitro assay) [ITIH4 (274-287)] | binds |
| TPHGIILDSVDAAFI (Synthetic peptide in the in vitro assay; also called Hemopexin (351-365)) [HPX (351-365)] | binds |
| ETMKMRYEHIDHTFEIQ (Found as eluted natural peptide and tested as synthetic peptide) [CYRB (359-375)] | binds |
| GPHDVHVQIETSPPARN (Synthetic peptide in the in vitro assay) [Fig1 (293-309)] | binds |
| EKLWFVPAKVEDSGHY (Found as eluted natural peptide and tested as synthetic peptide; also called Interleukin-1 receptor (79-94)) [IL-1R (79-94)] | binds |
